Reference: patent US20040006018A1

Biological target: Mouse CT-1 fusion protein (mouse cardiotrophin-1 with a 34 amino acid N-terminal extension that encodes a portion of the herpes simplex virus glycoprotein D and a factor Xa cleavage site) (mouse) (UniProt Q60753)
Test: 125I-mouse CT-1 binding to soluble LIF receptor with added soluble gp130, Ni-NTA agarose

Chain of Mouse CT-1 fusion protein (mouse cardiotrophin-1 with a 34 amino acid N-terminal extension that encodes a portion of the herpes simplex virus glycoprotein D and a factor Xa cleavage site) (mouse) (Q60753 whole entry, the tested form may be a part): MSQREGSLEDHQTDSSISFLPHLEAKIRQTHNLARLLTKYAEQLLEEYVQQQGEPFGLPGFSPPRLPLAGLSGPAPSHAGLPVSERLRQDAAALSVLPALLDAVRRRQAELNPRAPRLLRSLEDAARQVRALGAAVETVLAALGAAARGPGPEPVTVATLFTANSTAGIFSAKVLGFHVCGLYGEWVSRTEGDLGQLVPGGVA

“Soluble mouse gp130 (extracellular domain, amino acids 1-617, with a C-terminal tag of 6 histidine residues) (from UniProt Q00560 23-617) (receptor)” was tested, and the concentration of soluble gp130 required to increase the binding of CT-1 to the soluble LIF receptor was 100 nM.
